The target in this assay is T1, Purified FLAG-tagged HPV18 E1 (human papillomavirus type 18, UniProt P06789 1-657).
T1 construct: E1 helicase of human papillomavirus type 18; also called F18E1; source: Sf9 cells, recombinant baculovirus (pFastBac1), purified; not shown: FLAG, N-terminal, kept
T1 sequence: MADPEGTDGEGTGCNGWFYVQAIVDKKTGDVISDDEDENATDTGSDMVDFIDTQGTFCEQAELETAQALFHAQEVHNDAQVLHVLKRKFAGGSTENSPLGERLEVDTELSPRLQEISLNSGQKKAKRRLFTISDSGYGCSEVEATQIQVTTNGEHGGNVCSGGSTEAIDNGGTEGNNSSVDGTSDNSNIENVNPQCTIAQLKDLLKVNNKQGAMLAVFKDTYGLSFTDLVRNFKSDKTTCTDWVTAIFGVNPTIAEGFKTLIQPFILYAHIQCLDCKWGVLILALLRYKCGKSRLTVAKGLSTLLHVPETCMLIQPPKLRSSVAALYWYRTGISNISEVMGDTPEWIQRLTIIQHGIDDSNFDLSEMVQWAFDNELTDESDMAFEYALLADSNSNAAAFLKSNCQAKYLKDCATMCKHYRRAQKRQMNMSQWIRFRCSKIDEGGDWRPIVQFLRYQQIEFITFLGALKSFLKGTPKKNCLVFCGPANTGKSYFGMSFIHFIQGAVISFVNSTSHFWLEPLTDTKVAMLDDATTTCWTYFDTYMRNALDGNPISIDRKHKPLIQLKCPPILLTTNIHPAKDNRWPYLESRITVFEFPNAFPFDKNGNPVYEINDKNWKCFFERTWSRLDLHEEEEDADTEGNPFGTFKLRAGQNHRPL
Put plainly: co-IP; 1 ug purified H16E1 and 4 ug purified F18E1 in 200 ul binding buffer (20 mM Tris-HCl pH 8.0, 150 mM NaCl, 2 mM MgCl2, 0.01% NP-40); IP with anti-FLAG antibody and protein G magnetic beads, 1 h at 4°C; blot with anti-6xHis antibody. The conditions noted are these: both partners purified.

B1: Purified 6xHis-tagged HPV16 E1 (enzyme)
chain: MADPAGTNGEEGTGCNGWFYVEAVVEKKTGDAISDDENENDSDTGEDLVDFIVNDNDYLTQAETETAHALFTAQEAKQHRDAVQVLKRKYLVSPLSDISGCVDNNISPRLKAICIEKQSRAAKRRLFESEDSGYGNTEVETQQMLQVEGRHETETPCSQYSGGSGGGCSQYSSGSGGEGVSERHTICQTPLTNILNVLKTSNAKAAMLAKFKELYGVSFSELVRPFKSNKSTCCDWCIAAFGLTPSIADSIKTLLQQYCLYLHIQSLACSWGMVVLLLVRYKCGKNRETIEKLLSKLLCVSPMCMMIEPPKLRSTAAALYWYKTGISNISEVYGDTPEWIQRQTVLQHSFNDCTFELSQMVQWAYDNDIVDDSEIAYKYAQLADTNSNASAFLKSNSQAKIVKDCATMCRHYKRAEKKQMSMSQWIKYRCDRVDDGGDWKQIVMFLRYQGVEFMSFLTALKRFLQGIPKKNCILLYGAANTGKSLFGMSLMKFLQGSVICFVNSKSHFWLQPLADAKIGMLDDATVPCWNYIDDNLRNALDGNLVSMDVKHRPLVQLKCPPLLITSNINAGTDSRWPYLHNRLVVFTFPNEFPFDENGNPVYELNDKNWKSFFSRTWSRLSLHEDEDKENDGDSLPTFKCVSGQNTNTL
notes: E1 helicase of human papillomavirus type 16; H16E1 gene cloned into pET-30; The pET-30 vector may add further vector-derived residues; also called H16E1; source: Escherichia coli BL21(DE3) pLysS (pET-30), purified
For B1, the binding result is on record as “binds”.

The values above are taken from PMC3904167, “Replication interference between human papillomavirus types 16 and 18 mediated by heterologous E1 helicases” (Virology Journal, 2014).
